# Experimental data from article PMC4912689, “The Extracellular Surface of the GLP-1 Receptor Is a Molecular Trigger for Biased Agonism” (Cell, 2016).
# B1: glucagon-like peptide 1 receptor (GLP-1R), wild-type, P43220 L218A (protein)
# chain: RPQGATVSLWETVQKWREYRRQCQRSLTEDPPPATDLFCNRTFDEYACWPDGEPGSFVNVSCPWYLPWASSVPQGHVYRFCTAEGLWLQKDNSSLPWRDLSECEESKRGERSSPEEQLLFLYIIYTVGYALSFSALVIASAILLGFRHLHCTRNYIHLNLFASFILRALSVFIKDAALKWMYSTAAQQHQWDGLASYQDSLSCRLVFLLMQYCVAANYYWLLVEGVYLYTLLAFSVLSEQWIFRLYVSIGWGVPLLFVVPWGIVKYLYEDEGCWTRNSNMNYWLIIRLPILFAIGVNFLIFVRVICIVVSKLKANLMCKTDIKCRLAKSTLTLIPLLGTHEVIFAFVMDEHARGTLRFIKLFTELSFTSFQGLMVAILYCFVNNEVQLEFRKSWERWRLEHLHIQRDSSMKPLKCPTSSLSSGATAGSSMYTATCQASCS
# B2: glucagon-like peptide 1 receptor (GLP-1R), wild-type, P43220 M204A (protein)
# chain: RPQGATVSLWETVQKWREYRRQCQRSLTEDPPPATDLFCNRTFDEYACWPDGEPGSFVNVSCPWYLPWASSVPQGHVYRFCTAEGLWLQKDNSSLPWRDLSECEESKRGERSSPEEQLLFLYIIYTVGYALSFSALVIASAILLGFRHLHCTRNYIHLNLFASFILRALSVFIKDAALKWAYSTAAQQHQWDGLLSYQDSLSCRLVFLLMQYCVAANYYWLLVEGVYLYTLLAFSVLSEQWIFRLYVSIGWGVPLLFVVPWGIVKYLYEDEGCWTRNSNMNYWLIIRLPILFAIGVNFLIFVRVICIVVSKLKANLMCKTDIKCRLAKSTLTLIPLLGTHEVIFAFVMDEHARGTLRFIKLFTELSFTSFQGLMVAILYCFVNNEVQLEFRKSWERWRLEHLHIQRDSSMKPLKCPTSSLSSGATAGSSMYTATCQASCS
# B3: glucagon-like peptide 1 receptor (GLP-1R), wild-type, P43220 Y305A (protein)
# chain: RPQGATVSLWETVQKWREYRRQCQRSLTEDPPPATDLFCNRTFDEYACWPDGEPGSFVNVSCPWYLPWASSVPQGHVYRFCTAEGLWLQKDNSSLPWRDLSECEESKRGERSSPEEQLLFLYIIYTVGYALSFSALVIASAILLGFRHLHCTRNYIHLNLFASFILRALSVFIKDAALKWMYSTAAQQHQWDGLLSYQDSLSCRLVFLLMQYCVAANYYWLLVEGVYLYTLLAFSVLSEQWIFRLYVSIGWGVPLLFVVPWGIVKYLYEDEGCWTRNSNMNAWLIIRLPILFAIGVNFLIFVRVICIVVSKLKANLMCKTDIKCRLAKSTLTLIPLLGTHEVIFAFVMDEHARGTLRFIKLFTELSFTSFQGLMVAILYCFVNNEVQLEFRKSWERWRLEHLHIQRDSSMKPLKCPTSSLSSGATAGSSMYTATCQASCS
# B4: glucagon-like peptide 1 receptor (GLP-1R), wild-type, P43220 W297A (protein)
# chain: RPQGATVSLWETVQKWREYRRQCQRSLTEDPPPATDLFCNRTFDEYACWPDGEPGSFVNVSCPWYLPWASSVPQGHVYRFCTAEGLWLQKDNSSLPWRDLSECEESKRGERSSPEEQLLFLYIIYTVGYALSFSALVIASAILLGFRHLHCTRNYIHLNLFASFILRALSVFIKDAALKWMYSTAAQQHQWDGLLSYQDSLSCRLVFLLMQYCVAANYYWLLVEGVYLYTLLAFSVLSEQWIFRLYVSIGWGVPLLFVVPWGIVKYLYEDEGCATRNSNMNYWLIIRLPILFAIGVNFLIFVRVICIVVSKLKANLMCKTDIKCRLAKSTLTLIPLLGTHEVIFAFVMDEHARGTLRFIKLFTELSFTSFQGLMVAILYCFVNNEVQLEFRKSWERWRLEHLHIQRDSSMKPLKCPTSSLSSGATAGSSMYTATCQASCS
# B5: glucagon-like peptide 1 receptor (GLP-1R), wild-type, P43220 T386A (protein)
# chain: RPQGATVSLWETVQKWREYRRQCQRSLTEDPPPATDLFCNRTFDEYACWPDGEPGSFVNVSCPWYLPWASSVPQGHVYRFCTAEGLWLQKDNSSLPWRDLSECEESKRGERSSPEEQLLFLYIIYTVGYALSFSALVIASAILLGFRHLHCTRNYIHLNLFASFILRALSVFIKDAALKWMYSTAAQQHQWDGLLSYQDSLSCRLVFLLMQYCVAANYYWLLVEGVYLYTLLAFSVLSEQWIFRLYVSIGWGVPLLFVVPWGIVKYLYEDEGCWTRNSNMNYWLIIRLPILFAIGVNFLIFVRVICIVVSKLKANLMCKTDIKCRLAKSTLTLIPLLGTHEVIFAFVMDEHARGTLRFIKLFAELSFTSFQGLMVAILYCFVNNEVQLEFRKSWERWRLEHLHIQRDSSMKPLKCPTSSLSSGATAGSSMYTATCQASCS
# B6: glucagon-like peptide 1 receptor (GLP-1R), wild-type, P43220 H374A (protein)
# chain: RPQGATVSLWETVQKWREYRRQCQRSLTEDPPPATDLFCNRTFDEYACWPDGEPGSFVNVSCPWYLPWASSVPQGHVYRFCTAEGLWLQKDNSSLPWRDLSECEESKRGERSSPEEQLLFLYIIYTVGYALSFSALVIASAILLGFRHLHCTRNYIHLNLFASFILRALSVFIKDAALKWMYSTAAQQHQWDGLLSYQDSLSCRLVFLLMQYCVAANYYWLLVEGVYLYTLLAFSVLSEQWIFRLYVSIGWGVPLLFVVPWGIVKYLYEDEGCWTRNSNMNYWLIIRLPILFAIGVNFLIFVRVICIVVSKLKANLMCKTDIKCRLAKSTLTLIPLLGTHEVIFAFVMDEAARGTLRFIKLFTELSFTSFQGLMVAILYCFVNNEVQLEFRKSWERWRLEHLHIQRDSSMKPLKCPTSSLSSGATAGSSMYTATCQASCS
# B7: glucagon-like peptide 1 receptor (GLP-1R), wild-type, P43220 Q221A (protein)
# chain: RPQGATVSLWETVQKWREYRRQCQRSLTEDPPPATDLFCNRTFDEYACWPDGEPGSFVNVSCPWYLPWASSVPQGHVYRFCTAEGLWLQKDNSSLPWRDLSECEESKRGERSSPEEQLLFLYIIYTVGYALSFSALVIASAILLGFRHLHCTRNYIHLNLFASFILRALSVFIKDAALKWMYSTAAQQHQWDGLLSYADSLSCRLVFLLMQYCVAANYYWLLVEGVYLYTLLAFSVLSEQWIFRLYVSIGWGVPLLFVVPWGIVKYLYEDEGCWTRNSNMNYWLIIRLPILFAIGVNFLIFVRVICIVVSKLKANLMCKTDIKCRLAKSTLTLIPLLGTHEVIFAFVMDEHARGTLRFIKLFTELSFTSFQGLMVAILYCFVNNEVQLEFRKSWERWRLEHLHIQRDSSMKPLKCPTSSLSSGATAGSSMYTATCQASCS
# B8: glucagon-like peptide 1 receptor (GLP-1R), wild-type, P43220 L307A (protein)
# chain: RPQGATVSLWETVQKWREYRRQCQRSLTEDPPPATDLFCNRTFDEYACWPDGEPGSFVNVSCPWYLPWASSVPQGHVYRFCTAEGLWLQKDNSSLPWRDLSECEESKRGERSSPEEQLLFLYIIYTVGYALSFSALVIASAILLGFRHLHCTRNYIHLNLFASFILRALSVFIKDAALKWMYSTAAQQHQWDGLLSYQDSLSCRLVFLLMQYCVAANYYWLLVEGVYLYTLLAFSVLSEQWIFRLYVSIGWGVPLLFVVPWGIVKYLYEDEGCWTRNSNMNYWAIIRLPILFAIGVNFLIFVRVICIVVSKLKANLMCKTDIKCRLAKSTLTLIPLLGTHEVIFAFVMDEHARGTLRFIKLFTELSFTSFQGLMVAILYCFVNNEVQLEFRKSWERWRLEHLHIQRDSSMKPLKCPTSSLSSGATAGSSMYTATCQASCS
# B9: glucagon-like peptide 1 receptor (GLP-1R), wild-type, P43220 W203A (protein)
# chain: RPQGATVSLWETVQKWREYRRQCQRSLTEDPPPATDLFCNRTFDEYACWPDGEPGSFVNVSCPWYLPWASSVPQGHVYRFCTAEGLWLQKDNSSLPWRDLSECEESKRGERSSPEEQLLFLYIIYTVGYALSFSALVIASAILLGFRHLHCTRNYIHLNLFASFILRALSVFIKDAALKAMYSTAAQQHQWDGLLSYQDSLSCRLVFLLMQYCVAANYYWLLVEGVYLYTLLAFSVLSEQWIFRLYVSIGWGVPLLFVVPWGIVKYLYEDEGCWTRNSNMNYWLIIRLPILFAIGVNFLIFVRVICIVVSKLKANLMCKTDIKCRLAKSTLTLIPLLGTHEVIFAFVMDEHARGTLRFIKLFTELSFTSFQGLMVAILYCFVNNEVQLEFRKSWERWRLEHLHIQRDSSMKPLKCPTSSLSSGATAGSSMYTATCQASCS
# B10: glucagon-like peptide 1 receptor (GLP-1R), wild-type, P43220 G285A (protein)
# chain: RPQGATVSLWETVQKWREYRRQCQRSLTEDPPPATDLFCNRTFDEYACWPDGEPGSFVNVSCPWYLPWASSVPQGHVYRFCTAEGLWLQKDNSSLPWRDLSECEESKRGERSSPEEQLLFLYIIYTVGYALSFSALVIASAILLGFRHLHCTRNYIHLNLFASFILRALSVFIKDAALKWMYSTAAQQHQWDGLLSYQDSLSCRLVFLLMQYCVAANYYWLLVEGVYLYTLLAFSVLSEQWIFRLYVSIGWGVPLLFVVPWAIVKYLYEDEGCWTRNSNMNYWLIIRLPILFAIGVNFLIFVRVICIVVSKLKANLMCKTDIKCRLAKSTLTLIPLLGTHEVIFAFVMDEHARGTLRFIKLFTELSFTSFQGLMVAILYCFVNNEVQLEFRKSWERWRLEHLHIQRDSSMKPLKCPTSSLSSGATAGSSMYTATCQASCS
# B11: glucagon-like peptide 1 receptor (GLP-1R), wild-type, P43220 Y205A (protein)
# chain: RPQGATVSLWETVQKWREYRRQCQRSLTEDPPPATDLFCNRTFDEYACWPDGEPGSFVNVSCPWYLPWASSVPQGHVYRFCTAEGLWLQKDNSSLPWRDLSECEESKRGERSSPEEQLLFLYIIYTVGYALSFSALVIASAILLGFRHLHCTRNYIHLNLFASFILRALSVFIKDAALKWMASTAAQQHQWDGLLSYQDSLSCRLVFLLMQYCVAANYYWLLVEGVYLYTLLAFSVLSEQWIFRLYVSIGWGVPLLFVVPWGIVKYLYEDEGCWTRNSNMNYWLIIRLPILFAIGVNFLIFVRVICIVVSKLKANLMCKTDIKCRLAKSTLTLIPLLGTHEVIFAFVMDEHARGTLRFIKLFTELSFTSFQGLMVAILYCFVNNEVQLEFRKSWERWRLEHLHIQRDSSMKPLKCPTSSLSSGATAGSSMYTATCQASCS
# B12: glucagon-like peptide 1 receptor (GLP-1R), wild-type, P43220 R380A (protein)
# chain: RPQGATVSLWETVQKWREYRRQCQRSLTEDPPPATDLFCNRTFDEYACWPDGEPGSFVNVSCPWYLPWASSVPQGHVYRFCTAEGLWLQKDNSSLPWRDLSECEESKRGERSSPEEQLLFLYIIYTVGYALSFSALVIASAILLGFRHLHCTRNYIHLNLFASFILRALSVFIKDAALKWMYSTAAQQHQWDGLLSYQDSLSCRLVFLLMQYCVAANYYWLLVEGVYLYTLLAFSVLSEQWIFRLYVSIGWGVPLLFVVPWGIVKYLYEDEGCWTRNSNMNYWLIIRLPILFAIGVNFLIFVRVICIVVSKLKANLMCKTDIKCRLAKSTLTLIPLLGTHEVIFAFVMDEHARGTLAFIKLFTELSFTSFQGLMVAILYCFVNNEVQLEFRKSWERWRLEHLHIQRDSSMKPLKCPTSSLSSGATAGSSMYTATCQASCS
# B13: glucagon-like peptide 1 receptor (GLP-1R), wild-type, P43220 N304A (protein)
# chain: RPQGATVSLWETVQKWREYRRQCQRSLTEDPPPATDLFCNRTFDEYACWPDGEPGSFVNVSCPWYLPWASSVPQGHVYRFCTAEGLWLQKDNSSLPWRDLSECEESKRGERSSPEEQLLFLYIIYTVGYALSFSALVIASAILLGFRHLHCTRNYIHLNLFASFILRALSVFIKDAALKWMYSTAAQQHQWDGLLSYQDSLSCRLVFLLMQYCVAANYYWLLVEGVYLYTLLAFSVLSEQWIFRLYVSIGWGVPLLFVVPWGIVKYLYEDEGCWTRNSNMAYWLIIRLPILFAIGVNFLIFVRVICIVVSKLKANLMCKTDIKCRLAKSTLTLIPLLGTHEVIFAFVMDEHARGTLRFIKLFTELSFTSFQGLMVAILYCFVNNEVQLEFRKSWERWRLEHLHIQRDSSMKPLKCPTSSLSSGATAGSSMYTATCQASCS
# Target: exendin-4, P26349
# Test: radioligand inhibition binding (competition with 125I-exendin-4(9-39))
# Conditions: chain shown with the change;; read off a plot
row,Binder,log10 ratio
1,B1,-0.95 ΔpKi
2,B2,-0.75 ΔpKi
3,B3,-1.7 ΔpKi
4,B4,-1.8 ΔpKi
5,B5,-0.55 ΔpKi
6,B6,-0.35 ΔpKi
7,B7,-0.2 ΔpKi
8,B8,-0.8 ΔpKi
9,B9,-0.15 ΔpKi
10,B10,-0.1 ΔpKi
11,B11,-0.5 ΔpKi
12,B12,-1.5 ΔpKi
13,B13,-0.4 ΔpKi
